From PMC7467671

Legend:
Experiment in all cases: potentiometry
[1] = target: His3 (position 3, ---DEHGTAVM); conditions: 298 K, 0.1 M NaClO4
[2] = target: Nterm1 (position 1, -----DEHGTA); conditions: 298 K, 0.1 M NaClO4
[3] = target: Asp1 (position 1, -----DEHGTA); conditions: 298 K; 0.1 M NaClO4; none (4 mM HClO4, titrated with 0.1 M carbonate-free NaOH); metal-free peptide, largely unstructured
[4] = target: Glu2 (position 2, ----DEHGTAV); conditions: 298 K, 0.1 M NaClO4
[5] = target: Lys10 (position 10, TAVMLK-----); conditions: 298 K, 0.1 M NaClO4
[6] = target: His10 (position 10, GGGDEH-----); conditions: 298 K, 0.1 M NaClO4
[7] = target: Asp1 (position 1, -----DEHGGG); conditions: 298 K; 0.1 M NaClO4; none (4 mM HClO4, titrated with 0.1 M carbonate-free NaOH); metal-free peptide, largely unstructured
[8] = target: His3 (position 3, ---DEHGGGGD); conditions: 298 K, 0.1 M NaClO4
[9] = target: Glu9 (position 9, GGGGDEH----); conditions: 298 K; 0.1 M NaClO4; none (4 mM HClO4, titrated with 0.1 M carbonate-free NaOH); metal-free peptide, largely unstructured
[10] = target: Nterm1 (position 1, -----DEHGGG); conditions: 298 K, 0.1 M NaClO4
[11] = target: Glu2 (position 2, ----DEHGGGG); conditions: 298 K; 0.1 M NaClO4; none (4 mM HClO4, titrated with 0.1 M carbonate-free NaOH); metal-free peptide, largely unstructured
[12] = target: Asp8 (position 8, HGGGGDEH---); conditions: 298 K; 0.1 M NaClO4; none (4 mM HClO4, titrated with 0.1 M carbonate-free NaOH); metal-free peptide, largely unstructured
[13] = target: Asp8 (position 8, AVMLKDEH---); conditions: 298 K; 0.1 M NaClO4; none (4 mM HClO4, titrated with 0.1 M carbonate-free NaOH); metal-free peptide, largely unstructured
[14] = target: Lys7 (position 7, …--); conditions: 298 K, 0.1 M NaClO4
[15] = target: Nterm1 (position 1, -----GTAVML); conditions: 298 K, 0.1 M NaClO4
[16] = target: Glu9 (position 9, VMLKDEH----); conditions: 298 K; 0.1 M NaClO4; none (4 mM HClO4, titrated with 0.1 M carbonate-free NaOH); metal-free peptide, largely unstructured
[17] = target: His10 (position 10, MLKDEH-----); conditions: 298 K, 0.1 M NaClO4
[18] = target: Nterm1 (position 1, -----TMVLDE); conditions: 298 K, 0.1 M NaClO4
[19] = target: Glu6 (position 6, …-); conditions: 298 K; 0.1 M NaClO4; none (4 mM HClO4, titrated with 0.1 M carbonate-free NaOH); metal-free peptide, largely unstructured
[20] = target: Asp5 (position 5, -…); conditions: 298 K; 0.1 M NaClO4; none (4 mM HClO4, titrated with 0.1 M carbonate-free NaOH); metal-free peptide, largely unstructured
[21] = target: Lys9 (position 9, LDEHAKG----); conditions: 298 K, 0.1 M NaClO4
[22] = target: His7 (position 7, …--); conditions: 298 K, 0.1 M NaClO4
[23] = target: His2 (position 2, ----THMVLAK); conditions: 298 K, 0.1 M NaClO4
[24] = target: Lys7 (position 7, HMVLAKGED--); conditions: 298 K, 0.1 M NaClO4
[25] = target: Nterm1 (position 1, -----THMVLA); conditions: 298 K, 0.1 M NaClO4
[26] = target: Glu9 (position 9, VLAKGED----); conditions: 298 K, 0.1 M NaClO4
[27] = target: Asp10 (position 10, LAKGED-----); conditions: 298 K; 0.1 M NaClO4; none (4 mM HClO4, titrated with 0.1 M carbonate-free NaOH); metal-free peptide, largely unstructured
[28] = none (4 mM HClO4, titrated with 0.1 M carbonate-free NaOH), metal-free peptide, largely unstructured
[29] = none (4 mM HClO4, titrated with NaOH), Mn(II)-bound, Mn(II):peptide 1:1.1, [Mn(II)]tot = 0.5 mM
[30] = none (4 mM HClO4, titrated with NaOH), Cu(II)-bound, Cu(II):peptide 1:1.1, [Cu(II)]tot = 1 mM

B1: DP1 decapeptide (DEHGTAVMLK) (synthetic construct (designed from amino-acid content of Deinococcus radiodurans cell-free extract)) (peptide)
chain: DEHGTAVMLK
- pKa [1, 28]: 6.47
- pKa [1, 29]: 6.11
- pKa [2, 28]: 7.85
- pKa [2, 29]: 7.5
- pKa [3]: 3.06
- pKa [4, 28]: 4.20
- pKa [4, 30]: 4.17
- pKa [5, 28]: 9.62(3)
- pKa [5, 30]: 9.00
- pKa [5, 29]: 8.96

B2: Bis-DEH decapeptide (DEHGGGGDEH) (synthetic construct (Deinococcus radiodurans-inspired)) (peptide)
chain: DEHGGGGDEH
- pKa [6, 28]: 7.41
- pKa [6, 30]: 7.73
- pKa [6, 29]: 6.37
- pKa [7]: 2.67
- pKa [8, 28]: 6.67
- pKa [8, 29]: 7.25
- pKa [9]: 4.69
- pKa [10, 28]: 8.41
- pKa [10, 29]: 7.82
- pKa [11]: 4.05
- pKa [12]: 3.36

B3: Term-DEH decapeptide (GTAVMLKDEH) (synthetic construct (Deinococcus radiodurans-inspired)) (peptide)
chain: GTAVMLKDEH
- pKa [13]: 3.46
- pKa [14, 28]: 10.82(1)
- pKa [14, 30]: 11.05
- pKa [15, 28]: 8.16
- pKa [15, 30]: 5.34
- pKa [15, 29]: 7.79
- pKa [16]: 4.31
- pKa [17, 28]: 7.02
- pKa [17, 29]: 7.08

B4: Mid-DEH decapeptide (TMVLDEHAKG) (synthetic construct (Deinococcus radiodurans-inspired)) (peptide)
chain: TMVLDEHAKG
- pKa [18, 28]: 7.33
- pKa [18, 30]: 4.59
- pKa [18, 29]: 7.21
- pKa [19]: 4.06
- pKa [20]: 3.55
- pKa [21, 28]: 10.52(1)
- pKa [21, 30]: 11.20
- pKa [21, 29]: 9.8
- pKa [22, 28]: 6.29
- pKa [22, 29]: 6.42

B5: DP2 decapeptide (THMVLAKGED) (synthetic construct (scrambled DP1; Deinococcus radiodurans-inspired)) (peptide)
chain: THMVLAKGED
- pKa [23, 28]: 5.91
- pKa [23, 29]: 5.40
- pKa [24, 28]: 9.86(1)
- pKa [24, 30]: 9.87
- pKa [24, 29]: 8.29
- pKa [25, 28]: 7.01
- pKa [25, 29]: 6.59
- pKa [26, 28]: 4.70
- pKa [26, 30]: 4.91
- pKa [27]: 3.89
